IntAct's records for PubMed 23873930

B1: Transmembrane gamma-carboxyglutamic acid protein 4 (Homo sapiens), Q9BZD6 (parent)
chain: MFTLLVLLSQLPTVTLGFPHCARGPKASKHAGEEVFTSKEEANFFIHRRLLYNRFDLELFTPGNLERECNEELCNYEEAREIFVDEDKTIAFWQEYSAKGPTTKSDGNREKIDVMGLLTGLIAAGVFLVIFGLLGYYLCITKCNRLQHPCSSAVYERGRHTPSIIFRRPEEAALSPLPPSVEDAGLPSYEQAVALTRKHSVSPPPPYPGHTKGFRVFKKSMSLPSH
B2: Transmembrane gamma-carboxyglutamic acid protein 4 (Homo sapiens), Q9BZD6 (parent)
chain: B1 chain
partner: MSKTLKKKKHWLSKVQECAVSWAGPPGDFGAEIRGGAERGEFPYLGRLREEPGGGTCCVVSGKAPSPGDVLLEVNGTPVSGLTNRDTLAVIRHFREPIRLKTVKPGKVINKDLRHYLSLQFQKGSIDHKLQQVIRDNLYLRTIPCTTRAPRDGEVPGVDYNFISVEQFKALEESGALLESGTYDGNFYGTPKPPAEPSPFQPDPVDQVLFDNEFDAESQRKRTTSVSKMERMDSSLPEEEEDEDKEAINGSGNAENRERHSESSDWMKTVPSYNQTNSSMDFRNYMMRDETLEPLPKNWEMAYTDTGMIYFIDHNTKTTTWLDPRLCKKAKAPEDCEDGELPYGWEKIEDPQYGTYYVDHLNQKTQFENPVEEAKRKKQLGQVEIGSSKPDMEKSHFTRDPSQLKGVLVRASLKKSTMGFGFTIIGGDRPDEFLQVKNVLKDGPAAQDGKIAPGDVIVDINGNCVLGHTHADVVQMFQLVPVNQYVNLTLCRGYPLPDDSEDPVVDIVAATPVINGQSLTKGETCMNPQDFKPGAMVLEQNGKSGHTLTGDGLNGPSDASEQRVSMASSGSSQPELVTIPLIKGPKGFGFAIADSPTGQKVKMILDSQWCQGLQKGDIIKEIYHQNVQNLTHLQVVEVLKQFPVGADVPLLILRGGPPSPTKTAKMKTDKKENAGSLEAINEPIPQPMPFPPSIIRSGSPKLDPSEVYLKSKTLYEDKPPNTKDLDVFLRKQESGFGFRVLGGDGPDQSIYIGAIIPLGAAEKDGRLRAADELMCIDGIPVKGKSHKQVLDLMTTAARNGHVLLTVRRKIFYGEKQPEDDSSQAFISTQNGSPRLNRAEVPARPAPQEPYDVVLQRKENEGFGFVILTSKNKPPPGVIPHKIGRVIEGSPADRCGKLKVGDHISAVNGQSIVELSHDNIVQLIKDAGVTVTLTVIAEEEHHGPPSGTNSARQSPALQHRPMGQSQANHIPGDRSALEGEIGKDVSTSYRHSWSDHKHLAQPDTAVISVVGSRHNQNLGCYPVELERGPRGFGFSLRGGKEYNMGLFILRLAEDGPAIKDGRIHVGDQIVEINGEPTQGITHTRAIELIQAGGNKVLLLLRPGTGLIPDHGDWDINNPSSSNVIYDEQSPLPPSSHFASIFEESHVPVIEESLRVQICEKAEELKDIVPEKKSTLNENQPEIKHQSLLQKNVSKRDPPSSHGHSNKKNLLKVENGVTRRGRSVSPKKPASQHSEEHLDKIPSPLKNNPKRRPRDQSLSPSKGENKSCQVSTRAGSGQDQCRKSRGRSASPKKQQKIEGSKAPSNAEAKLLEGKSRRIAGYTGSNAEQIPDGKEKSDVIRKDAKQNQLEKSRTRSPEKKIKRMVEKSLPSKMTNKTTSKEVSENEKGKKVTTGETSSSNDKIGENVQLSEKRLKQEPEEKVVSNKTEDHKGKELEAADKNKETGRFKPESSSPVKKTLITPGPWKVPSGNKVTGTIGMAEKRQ
B3: Transcriptional coactivator YAP1 (Homo sapiens), P46937-3 (parent)
chain: MDPGQQPPPQPAPQGQGQPPSQPPQGQGPPSGPGQPAPAATQAAPQAPPAGHQIVHVRGDSETDLEALFNAVMNPKTANVPQTVPMRLRKLPDSFFKPPEPKSHSRQASTDAGTAGALTPQHVRAHSSPASLQLGAVSPGTLTPTGVVSGPAATPTAQHLRQSSFEIPDDVPLPAGWEMAKTSSGQRYFLNHIDQTTTWQDPRKAMLSQMNVTAPTSPPVQQNMMNSASAMNQRISQSAPVKQPPPLAPQSPQGGVMGGSNSNQQQQMRLQQLQMEKERLRLKQQELLRQVRPQELALRSQLPTLEQDGGTQNPVSSPGMSQELRTMTTNSSDPFLNSGTYHSRDESTDSGLSMSSYSVPRTPDDFLNSVDEMDTGDTINQSTLPSQQNRFPDYLEAIPGTNVDLGTLEGDGMNIEGEELMPSLQEALSSDILNDMESVLAATKLDKESFLTWL
partner: B1 chain

Variants of: B1
Conditions: with Magi1, Q6RHR9-1
Magi1, Q6RHR9-1, sequence (Q6RHR9 whole entry): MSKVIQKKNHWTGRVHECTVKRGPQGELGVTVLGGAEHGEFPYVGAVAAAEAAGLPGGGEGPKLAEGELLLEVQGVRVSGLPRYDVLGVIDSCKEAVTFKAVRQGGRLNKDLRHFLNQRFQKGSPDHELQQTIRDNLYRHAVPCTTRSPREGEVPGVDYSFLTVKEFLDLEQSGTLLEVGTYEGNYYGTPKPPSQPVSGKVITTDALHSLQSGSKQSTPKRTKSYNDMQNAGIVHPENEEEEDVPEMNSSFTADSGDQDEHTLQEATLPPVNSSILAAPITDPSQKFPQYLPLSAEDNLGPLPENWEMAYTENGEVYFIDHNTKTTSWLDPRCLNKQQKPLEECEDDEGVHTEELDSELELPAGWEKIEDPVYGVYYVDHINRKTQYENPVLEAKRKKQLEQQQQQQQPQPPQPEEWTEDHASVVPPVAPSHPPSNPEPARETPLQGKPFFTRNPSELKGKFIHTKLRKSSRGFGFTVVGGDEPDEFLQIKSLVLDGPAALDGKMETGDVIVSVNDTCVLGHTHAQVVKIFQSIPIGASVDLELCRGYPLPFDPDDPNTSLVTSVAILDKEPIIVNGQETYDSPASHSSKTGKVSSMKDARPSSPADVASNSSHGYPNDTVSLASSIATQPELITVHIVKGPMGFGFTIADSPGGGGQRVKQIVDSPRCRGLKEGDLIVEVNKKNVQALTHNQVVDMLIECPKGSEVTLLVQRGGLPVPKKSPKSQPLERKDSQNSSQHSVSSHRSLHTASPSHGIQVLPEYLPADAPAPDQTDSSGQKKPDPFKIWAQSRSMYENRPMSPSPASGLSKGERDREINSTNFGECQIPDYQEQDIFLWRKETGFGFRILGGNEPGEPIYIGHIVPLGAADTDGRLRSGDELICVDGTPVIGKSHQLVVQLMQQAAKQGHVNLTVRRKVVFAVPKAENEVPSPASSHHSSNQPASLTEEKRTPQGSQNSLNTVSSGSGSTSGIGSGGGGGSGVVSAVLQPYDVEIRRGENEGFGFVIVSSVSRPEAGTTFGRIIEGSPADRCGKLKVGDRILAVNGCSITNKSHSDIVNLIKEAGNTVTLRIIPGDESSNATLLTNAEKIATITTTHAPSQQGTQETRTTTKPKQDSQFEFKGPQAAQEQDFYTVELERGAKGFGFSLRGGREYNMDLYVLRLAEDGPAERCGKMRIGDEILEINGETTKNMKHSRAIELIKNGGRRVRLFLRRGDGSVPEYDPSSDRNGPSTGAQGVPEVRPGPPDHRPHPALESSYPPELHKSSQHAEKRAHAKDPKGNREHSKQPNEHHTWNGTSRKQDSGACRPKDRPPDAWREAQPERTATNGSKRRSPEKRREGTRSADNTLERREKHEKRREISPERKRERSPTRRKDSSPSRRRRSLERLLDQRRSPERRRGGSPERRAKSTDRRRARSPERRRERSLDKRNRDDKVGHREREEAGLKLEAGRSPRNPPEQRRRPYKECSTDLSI

Row | effect of a mutation on the interaction | Variant
1 | decreasing interaction strength | MFTLLVLLSQLPTVTLGFPHCARGPKASKHAGEEVFTSKEEANFFIHRRLLYNRFDLELFTPGNLERECNEELCNYEEAREIFVDEDKTIAFWQEYSAKGPTTKSDGNREKIDVMGLLTGLIAAGVFLVIFGLLGYYLCITKCNRLQHPCSSAVYERGRHTPSIIFRRPEEAALSPLPPSVEDAGLPSYEQAVALTRKHSVSPPPPAPGHTKGFRVFKKSMSLPSH [Y207A]
2 | disrupting interaction strength | MFTLLVLLSQLPTVTLGFPHCARGPKASKHAGEEVFTSKEEANFFIHRRLLYNRFDLELFTPGNLERECNEELCNYEEAREIFVDEDKTIAFWQEYSAKGPTTKSDGNREKIDVMGLLTGLIAAGVFLVIFGLLGYYLCITKCNRLQHPCSSAVYERGRHTPSIIFRRPEEAALSPLPPSVEDAGLPSAEQAVALTRKHSVSPPPPYPGHTKGFRVFKKSMSLPSH [Y189A]

Variants of: B1
Conditions: with wwtr1_human WWTR1, Q9GZV5
wwtr1_human WWTR1, Q9GZV5, sequence (Q9GZV5 whole entry): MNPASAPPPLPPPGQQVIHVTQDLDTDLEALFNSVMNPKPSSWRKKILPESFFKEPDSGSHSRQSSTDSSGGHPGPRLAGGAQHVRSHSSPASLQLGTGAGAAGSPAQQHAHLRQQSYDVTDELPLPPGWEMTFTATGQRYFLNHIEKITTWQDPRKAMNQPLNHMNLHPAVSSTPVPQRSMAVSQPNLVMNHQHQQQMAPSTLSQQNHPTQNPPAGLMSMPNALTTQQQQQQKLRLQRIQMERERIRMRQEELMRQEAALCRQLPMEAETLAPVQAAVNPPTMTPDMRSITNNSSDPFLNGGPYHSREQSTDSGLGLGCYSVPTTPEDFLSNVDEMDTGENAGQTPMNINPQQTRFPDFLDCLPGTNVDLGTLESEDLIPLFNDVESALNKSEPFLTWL

Row | effect of a mutation on the interaction | Variant
3 | with no effect | MFTLLVLLSQLPTVTLGFPHCARGPKASKHAGEEVFTSKEEANFFIHRRLLYNRFDLELFTPGNLERECNEELCNYEEAREIFVDEDKTIAFWQEYSAKGPTTKSDGNREKIDVMGLLTGLIAAGVFLVIFGLLGYYLCITKCNRLQHPCSSAVYERGRHTPSIIFRRPEEAALSPLPPSVEDAGLPSYEQAVALTRKHSVSPPPPAPGHTKGFRVFKKSMSLPSH [Y207A]
4 | disrupting interaction strength | MFTLLVLLSQLPTVTLGFPHCARGPKASKHAGEEVFTSKEEANFFIHRRLLYNRFDLELFTPGNLERECNEELCNYEEAREIFVDEDKTIAFWQEYSAKGPTTKSDGNREKIDVMGLLTGLIAAGVFLVIFGLLGYYLCITKCNRLQHPCSSAVYERGRHTPSIIFRRPEEAALSPLPPSVEDAGLPSAEQAVALTRKHSVSPPPPYPGHTKGFRVFKKSMSLPSH [Y189A]

Variants of: B1
Conditions: with YAP1, P46937-3

Row | effect of a mutation on the interaction | Variant
5 | with no effect | MFTLLVLLSQLPTVTLGFPHCARGPKASKHAGEEVFTSKEEANFFIHRRLLYNRFDLELFTPGNLERECNEELCNYEEAREIFVDEDKTIAFWQEYSAKGPTTKSDGNREKIDVMGLLTGLIAAGVFLVIFGLLGYYLCITKCNRLQHPCSSAVYERGRHTPSIIFRRPEEAALSPLPPSVEDAGLPSYEQAVALTRKHSVSPPPPAPGHTKGFRVFKKSMSLPSH [Y207A]
6 | disrupting interaction strength | MFTLLVLLSQLPTVTLGFPHCARGPKASKHAGEEVFTSKEEANFFIHRRLLYNRFDLELFTPGNLERECNEELCNYEEAREIFVDEDKTIAFWQEYSAKGPTTKSDGNREKIDVMGLLTGLIAAGVFLVIFGLLGYYLCITKCNRLQHPCSSAVYERGRHTPSIIFRRPEEAALSPLPPSVEDAGLPSAEQAVALTRKHSVSPPPPYPGHTKGFRVFKKSMSLPSH [Y189A]

Variants of: B1
Conditions: with ned4l_human NEDD4L

Row | effect of a mutation on the interaction | Variant
7 | with no effect | MFTLLVLLSQLPTVTLGFPHCARGPKASKHAGEEVFTSKEEANFFIHRRLLYNRFDLELFTPGNLERECNEELCNYEEAREIFVDEDKTIAFWQEYSAKGPTTKSDGNREKIDVMGLLTGLIAAGVFLVIFGLLGYYLCITKCNRLQHPCSSAVYERGRHTPSIIFRRPEEAALSPLPPSVEDAGLPSYEQAVALTRKHSVSPPPPAPGHTKGFRVFKKSMSLPSH [Y207A]
8 | disrupting interaction strength | MFTLLVLLSQLPTVTLGFPHCARGPKASKHAGEEVFTSKEEANFFIHRRLLYNRFDLELFTPGNLERECNEELCNYEEAREIFVDEDKTIAFWQEYSAKGPTTKSDGNREKIDVMGLLTGLIAAGVFLVIFGLLGYYLCITKCNRLQHPCSSAVYERGRHTPSIIFRRPEEAALSPLPPSVEDAGLPSAEQAVALTRKHSVSPPPPYPGHTKGFRVFKKSMSLPSH [Y189A]

Variants of: B1
Conditions: with nedd4_human NEDD4, P46934
nedd4_human NEDD4, P46934, sequence (P46934 whole entry): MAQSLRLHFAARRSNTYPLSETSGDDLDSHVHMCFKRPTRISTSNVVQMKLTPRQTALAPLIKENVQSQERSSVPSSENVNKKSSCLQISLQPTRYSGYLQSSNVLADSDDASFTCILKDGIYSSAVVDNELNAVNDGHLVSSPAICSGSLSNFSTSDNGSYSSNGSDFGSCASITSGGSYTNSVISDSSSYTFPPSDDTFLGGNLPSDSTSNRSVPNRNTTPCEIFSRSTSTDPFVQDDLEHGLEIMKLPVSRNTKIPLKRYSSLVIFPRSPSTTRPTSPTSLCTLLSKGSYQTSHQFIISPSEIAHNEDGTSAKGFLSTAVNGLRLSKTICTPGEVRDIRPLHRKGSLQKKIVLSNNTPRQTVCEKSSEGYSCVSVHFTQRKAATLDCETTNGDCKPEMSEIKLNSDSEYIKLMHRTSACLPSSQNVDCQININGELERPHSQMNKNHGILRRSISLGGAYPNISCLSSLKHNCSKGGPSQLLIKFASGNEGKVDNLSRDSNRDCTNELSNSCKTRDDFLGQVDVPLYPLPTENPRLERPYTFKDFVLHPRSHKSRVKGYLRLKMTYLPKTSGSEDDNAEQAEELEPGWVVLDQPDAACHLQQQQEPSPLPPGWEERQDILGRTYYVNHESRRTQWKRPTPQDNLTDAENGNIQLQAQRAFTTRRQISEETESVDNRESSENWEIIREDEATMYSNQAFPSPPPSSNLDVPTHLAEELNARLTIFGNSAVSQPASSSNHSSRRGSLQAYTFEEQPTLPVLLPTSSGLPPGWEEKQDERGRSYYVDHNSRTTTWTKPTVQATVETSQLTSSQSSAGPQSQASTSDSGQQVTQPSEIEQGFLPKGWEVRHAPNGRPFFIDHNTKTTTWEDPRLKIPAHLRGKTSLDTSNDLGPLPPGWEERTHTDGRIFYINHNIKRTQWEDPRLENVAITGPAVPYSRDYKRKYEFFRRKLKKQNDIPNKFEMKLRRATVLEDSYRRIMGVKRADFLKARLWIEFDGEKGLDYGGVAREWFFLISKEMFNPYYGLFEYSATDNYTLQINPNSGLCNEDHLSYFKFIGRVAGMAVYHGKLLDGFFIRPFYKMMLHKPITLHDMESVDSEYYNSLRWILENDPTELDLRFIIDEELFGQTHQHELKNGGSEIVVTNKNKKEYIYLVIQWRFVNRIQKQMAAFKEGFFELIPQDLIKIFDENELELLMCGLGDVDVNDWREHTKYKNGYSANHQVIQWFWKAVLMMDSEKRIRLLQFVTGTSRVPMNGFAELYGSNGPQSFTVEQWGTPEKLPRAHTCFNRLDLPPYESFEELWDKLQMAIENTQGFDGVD

Row | effect of a mutation on the interaction | Variant
9 | with no effect | MFTLLVLLSQLPTVTLGFPHCARGPKASKHAGEEVFTSKEEANFFIHRRLLYNRFDLELFTPGNLERECNEELCNYEEAREIFVDEDKTIAFWQEYSAKGPTTKSDGNREKIDVMGLLTGLIAAGVFLVIFGLLGYYLCITKCNRLQHPCSSAVYERGRHTPSIIFRRPEEAALSPLPPSVEDAGLPSYEQAVALTRKHSVSPPPPAPGHTKGFRVFKKSMSLPSH [Y207A]
10 | disrupting interaction strength | MFTLLVLLSQLPTVTLGFPHCARGPKASKHAGEEVFTSKEEANFFIHRRLLYNRFDLELFTPGNLERECNEELCNYEEAREIFVDEDKTIAFWQEYSAKGPTTKSDGNREKIDVMGLLTGLIAAGVFLVIFGLLGYYLCITKCNRLQHPCSSAVYERGRHTPSIIFRRPEEAALSPLPPSVEDAGLPSAEQAVALTRKHSVSPPPPYPGHTKGFRVFKKSMSLPSH [Y189A]

Variants of: B2
Conditions: with magi3_human MAGI3, Q5TCQ9

Row | effect of a mutation on the interaction | Variant
11 | with no effect | MFTLLVLLSQLPTVTLGFPHCARGPKASKHAGEEVFTSKEEANFFIHRRLLYNRFDLELFTPGNLERECNEELCNYEEAREIFVDEDKTIAFWQEYSAKGPTTKSDGNREKIDVMGLLTGLIAAGVFLVIFGLLGYYLCITKCNRLQHPCSSAVYERGRHTPSIIFRRPEEAALSPLPPSVEDAGLPSYEQAVALTRKHSVSPPPPAPGHTKGFRVFKKSMSLPSH [Y207A]
12 | disrupting interaction strength | MFTLLVLLSQLPTVTLGFPHCARGPKASKHAGEEVFTSKEEANFFIHRRLLYNRFDLELFTPGNLERECNEELCNYEEAREIFVDEDKTIAFWQEYSAKGPTTKSDGNREKIDVMGLLTGLIAAGVFLVIFGLLGYYLCITKCNRLQHPCSSAVYERGRHTPSIIFRRPEEAALSPLPPSVEDAGLPSAEQAVALTRKHSVSPPPPYPGHTKGFRVFKKSMSLPSH [Y189A]

Variants of: B3
Conditions: with tmg4_human PRRG4, Q9BZD6

Row | effect of a mutation on the interaction | Variant
13 | disrupting interaction strength | W199A;P202A
14 | with no effect | S127A
